From publication PMC6181919, “A cysteine-based molecular code informs collagen C-propeptide assembly” (Nature Communications, 2018)

Assays:
[1] = target: the molecule itself; test: non-reducing SDS-PAGE immunoblot; conditioned media of transfected HEK293 cells, treated with 100 mM iodoacetamide, boiled in SDS, 12% gel, non-reducing; denaturing, shows disulfide-linked species only; two-colour detection of HA and FLAG
[2] = target: the molecule itself; test: AUC; sedimentation equilibrium, 25 °C, 20 mM Bis-Tris propane pH 7, 150 mM NaCl, without Ca^2+; equilibrium constants are of monomer to dimer
[3] = target: the molecule itself; test: AUC; sedimentation equilibrium, 25 °C, 20 mM Bis-Tris propane pH 7, 150 mM NaCl, with 0.5 mM CaCl2; monomer to trimer
[4] = target: the molecule itself; test: SEC; size exclusion chromatography in the presence and absence of Ca^2+, compared to wild-type C-Proα1(I)
[5] = target: the molecule itself; test: non-reducing SDS-PAGE immunoblot; cell lysate of transfected HEK293 cells (protein not secreted), non-reducing; denaturing, shows disulfide-linked species only

B1: wild-type, HA-tagged C-Proα1(I) (C-propeptide domain of human Colα1(I)) (domain or fragment)
chain: DDANVVRDRDLEVDTTLKSLSQQIENIRSPEGSRKNPARTCRDLKMCHSDWKSGEYWIDPNQGCNLDAIKVFCNMETGETCVYPTQPSVAQKNWYISKNPKDKRHVWFGESMTDGFQFEYGGQGSDPADVAIQLTFLRLMSTEASQNITYHCKNSVAYMDQQTGNLKKALLLQGSNEIEIRAEGNSRFTYSVTVDGCTSHTGAWGKTVIEYKTTKTSRLPIIDVAPLDVGAPDQEFGFDVGPVCFL
notes: C-propeptide (C-Pro) domain of human procollagen alpha1(I), from the endogenous C-proteinase cleavage site to the C-terminus; Secreted alone it is a disulfide-linked homotrimer; also called wild-type C-Proα1(I); Colα1(I) C-Pro; not shown: HA, N-terminal, kept
B1 was tested, and the “stoichiometry N” value [1] was 3.

B2: purified C2S (Cys1265Ser) C-Proα1(I), His tag cleaved (domain or fragment, human)
chain: DDANVVRDRDLEVDTTLKSLSQQIENIRSPEGSRKNPARTCRDLKMSHSDWKSGEYWIDPNQGCNLDAIKVFCNMETGETCVYPTQPSVAQKNWYISKNPKDKRHVWFGESMTDGFQFEYGGQGSDPADVAIQLTFLRLMSTEASQNITYHCKNSVAYMDQQTGNLKKALLLQGSNEIEIRAEGNSRFTYSVTVDGCTSHTGAWGKTVIEYKTTKTSRLPIIDVAPLDVGAPDQEFGFDVGPVCFL
modifications: glycosylated (a single N-glycosylation site in the polypeptide; site not given)
notes: C-propeptide (C-Pro) domain of human procollagen alpha1(I), from the endogenous C-proteinase cleavage site to the C-terminus; also called C2S C-Proα1(I); source: HEK293 Freestyle, transfected, secreted, purified (Ni-NTA, HRV-3C cleavage, second Ni-NTA, Superdex 200)
In the case of B2, the Ka [2] is reported as 76300 M⁻¹, the “stoichiometry N” value [2] is reported as 2 and the “stoichiometry N” value [3] is reported as 3.

B3: purified wild-type C-Proα1(I), His tag cleaved (domain or fragment, human)
chain: DDANVVRDRDLEVDTTLKSLSQQIENIRSPEGSRKNPARTCRDLKMCHSDWKSGEYWIDPNQGCNLDAIKVFCNMETGETCVYPTQPSVAQKNWYISKNPKDKRHVWFGESMTDGFQFEYGGQGSDPADVAIQLTFLRLMSTEASQNITYHCKNSVAYMDQQTGNLKKALLLQGSNEIEIRAEGNSRFTYSVTVDGCTSHTGAWGKTVIEYKTTKTSRLPIIDVAPLDVGAPDQEFGFDVGPVCFL
modifications: glycosylated (a single N-glycosylation site in the polypeptide; site not given)
notes: C-propeptide (C-Pro) domain of human procollagen alpha1(I), from the endogenous C-proteinase cleavage site to the C-terminus; The HA/FLAG vectors were modified to carry a cleavable 6x-His tag with an HRV-3C site; Interstrand disulfide-linked homotrimer; source: HEK293 Freestyle, transfected, secreted, purified (Ni-NTA, HRV-3C cleavage, second Ni-NTA, Superdex 200)
In the case of B3, the “stoichiometry N” value [2] is reported as 3.

B4: Asp1277His C-Proα1(I) (domain or fragment, human)
chain: DDANVVRDRDLEVDTTLKSLSQQIENIRSPEGSRKNPARTCRDLKMCHSDWKSGEYWIHPNQGCNLDAIKVFCNMETGETCVYPTQPSVAQKNWYISKNPKDKRHVWFGESMTDGFQFEYGGQGSDPADVAIQLTFLRLMSTEASQNITYHCKNSVAYMDQQTGNLKKALLLQGSNEIEIRAEGNSRFTYSVTVDGCTSHTGAWGKTVIEYKTTKTSRLPIIDVAPLDVGAPDQEFGFDVGPVCFL
notes: C-propeptide (C-Pro) domain of human procollagen alpha1(I) with the osteogenesis imperfecta-causing substitution Asp1277His
With B4 the “stoichiometry N” value [4] was 2.

B5: wild-type, HA-tagged C-Proα2(XI) (domain or fragment, human, UniProt P13942 1501-1736, looked up)
chain: IQPLPIQMPKKTRRSVDGSRLMQEDEAIPTGGAPGSPGGLEEIFGSLDSLREEIEQMRRPTGTQDSPARTCQDLKLCHPELPDGEYWVDPNQGCARDAFRVFCNFTAGGETCVTPRDDVTQFSYVDSEGSPVGVVQLTFLRLLSVSAHQDVSYPCSGAARDGPLRLRGANEDELSPETSPYVKEFRDGCQTQQGRTVLEVRTPVLEQLPVLDASFSDLGAPPRRGGVLLGPVCFMG
notes: C-propeptide (C-Pro) domain of human procollagen alpha2(XI); gene bought from Genewiz; source: HEK293, transfected, not secreted, in cell lysate; not shown: HA, N-terminal, kept
In the case of B5, the “stoichiometry N” value [5] is reported as 3.
